Experimental data as given in the nanobody polyreactivity screen of Harvey et al. (2022).

Experiment: yeast display, Sf9 membrane polyspecificity reagent, FACS + sequencing; frameworks hold sequencing errors
Summary of the method: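 Synthetic nanobody libraries on Saccharomyces cerevisiae BJ5465 were galactose-induced for 36–48 hours, stained 1 hour at 4 °C with 10% biotinylated, detergent-solubilized Sf9 membrane reagent and enriched on streptavidin microbeads. FACS then separated cells into low and high (top ~1%) gates by anti-HA (expression) and streptavidin (reagent binding) fluorescence. Genes were colony-PCR amplified, MiSeq 2 × 250 sequenced and CDR-length filtered. A clone's polyreactivity label is that of its gate of origin.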

Row | Sequence | polyreactivity (PSR sort gate)
1 | QVQLGESGGGLVQAGVSLRLSCAASGNTFYWNAMGWYRQAPGKERELVAAISTTGVSTYYADSVKGRFTISRDNAKNTVYLQMNSLKPEDTAVYYCAVDPPYSNPITINEDYWGQGTQVTVSS | low polyreactivity
2 | QVPLVESGGGLGQAGGSLRLSCGASGSIFSLYAMGWSRLAPGKEREVVASLTWRGDSTYYADSVTGRFTISRDNAKNTVYLQMNSLKPEDTAVYNCNAVYYYAEPTSFGGYDYWGQGTQVTVSS | low polyreactivity
3 | QVQLVESGGGLVQAGGSLRLSCAASGRIFSYAMGWYRQAPGKEREFVAAIRWSGGRTYYADSVKGRFTISRDNAKNTVYLQMNSLKPEDTAVYYCARQGYTLYRTRYRYDYWGQGTQVTVSS | high polyreactivity
4 | QVQLVESVGGLVQAGGTLSLSCAASGFTFRNYAMGWYRQAPRKEREFVAAISRRGGSTYYADSVKGRITISRDNAKNTVYLQINSLKPEDSAVYYCATEPGKQNTYRMDYCGQGTQVTVSS | high polyreactivity
5 | QVQLQESGGGLVQAGGSLRLSCAASGSISGPHLMGWYRQAPGQEREFVAAINVGANTYYADNVKGRFTISRDNAKNTLYLQMNSLKPEDTAVYYCAAVYYGDIGHEYWGQGTQVTVSC | low polyreactivity
6 | QVQLVESGGGLVQAGGSLRLSCAASGRILPSNAMGWYRQSPGKERELVATISSSGGDTYYADSVKGRFTISRDNAKNTVYLQMNSLKPEDTAGYYCAADSTWEGGYKYEYWGQGTQVTVSS | low polyreactivity
7 | QVQLVESGGGLVQAGGSLRLSCAASGGTFTPYDMGWYRQAPGKERELVASITGSGGSTYYADSVKGRFTISRGNAKNTVYLQMNSLKPEDTAVYYCAAQGYWTYWPYLLRLYDYWGQGTQVTVSS | low polyreactivity
8 | QVQLVESGGGLVQAGGSLRLSCAASGRIFLSYAMGWYRQAPGKERELVAGITWNGGSTYYADSVKGRFTISRDNAKNTVYLQMNSLKPEDTAVYYCAATRFSYVFPYRYDYWGQGTQVTVSS | low polyreactivity
9 | QVQLVESGGGLVQPGGSLRLSCAASGSIFAWYVMGWYRQAPGKERELVAGIDTSGGTTFYADSVKGRFTISRDNAKNTVYVQMNSLKPEDTAVYYCAADTWYRGPWEFDYWGQGTQVTVSS | low polyreactivity
10 | QVQRVESGGGLVQAGGSLRLSCAASGRIFQIYAMGWYRQAPGKERELVAAIRSGSNTNYADSVKGRFTISRDNAKNTVYLQMNSLKPEDTAVYYCNALYTSLRKDNYWGQGTQVTVST | low polyreactivity
11 | QVQLVESGGGVVQAGGSLRLSCAATGRIFGVYAMGWYRQAPGKERELVAAISSTGGSTYYADSVKGRFTISRDNAKNTVYLQMNSLKPEDTAVYYCEYDYWGQGSQVTVSS | low polyreactivity
12 | QVQLVESGGGLVQAGGSLRLSCAASGSIFKRYAMGWYRQAPGKERELVAGITSSGGSTYYADSVKGRFTISPDNAKNTVYLQMNSLKPEDTAVYYCAAPYSSYKVRPYDYWGQGTQVTVSS | low polyreactivity
13 | QVQLVESGGGLVQAGGSLRLSCAAYGSTFGDYAMGWYRQAPGKERELVAAITIGGITTYADSVKGRFTISRDNAKNTVYLQMNSLKPEDTAVYYCADAERGDWDDYWGQGTQVTVSS | low polyreactivity
14 | QVQLVESGGGLVQAGGSLRLSCAASGFTIGANTMGWYRQAPGKERELVAAISASGGSTYYADSVKGRFTISRDNAKNTVYLQMNSLKPEDTAVYYCAARRYPGRTATYYSWGQGTQVTVSS | high polyreactivity
15 | QVQLVESGGGLVQEGGSLRLSCAASGRTFPYTVMGWYRQAPGKERELVAGITGSGDSTFYADSVKGRFTISRDNAKNTVYIQMNSLKPEDTAVYYCAARYRTLNDGYIRIYWGQGTQVTVSS | low polyreactivity
16 | QVQLVESGGGLVQAGGSLRLSCAAYGFTFASNVMGWYRQAPGKDRELVAAITSGASTNYADSVKGRFTISRDNAKNTVYLQMNSLKPVDTAVYYCAAGRQWYVFYEFDYWGQGTQVTVSS | high polyreactivity
17 | QVQLVESGGGLVQAGGSLRLSCAASGITFRNYARGWYRQAPGKERELVAAITTSGSRTYYEDSVKGRFTISRDNAKKTVYLQMNSLKPEDTAVYYCAAQQVPWQYYDFEYWGQGTQVTVSS | high polyreactivity
